Values quoted from earlier work, collected in article PMC11678748.

Target: KCCYSL peptide (synthetic construct)

Substance: HER2 (from UniProt P04626)
- Kd: 295 nM
